Key:
[1] = Quantum yield determination; format: physicochemical; details: for Quant. Yield: Table 5, in PBS
Experimental: Quantum yields were determined as described in Demas et al., “Measurement of photoluminescence quantum yields. Review”, Journal of Physical Chemistry 75, 991-1024 (1971), and Shao et al., “Facile Synthesis of Monofunctional Pentamethine Carbocyanine Fluorophores. Dyes and pigments: an international journal 90, 119-122 (2011). For IR-783 a reference quantum yield of 0.043 was used (see Li et al., “Synthesis and characterization of glucosamine-bound near-infrared probes for optical imaging”, Organic letters 8, 3623-3626, 2006); for fluorescein a reference quantum yield was […] (see Sjoback et al., “Absorption and florescence properties of fluorescein”, Spectrohimica Acta Part A 51, L7-L21, 1995). For Cy3 a reference quantum yield of 0.31 was used (Luminprobe Inc). For PN(783)'s, excitation was at 730 nm and emission spectra were recorded from 765 nm to 870 nm in PBS and maximum emission used. For PN(545)'s, excitation was at 515 nm and emission spectra were recorded from 538 nm to 700 nm in PBS and maximum emission used. For PN(497)'s, excitation was at 450 nm and emission spectra were recorded from 475 nm to 620 nm in PBS and maximum emission used. Absorbance of each probe was adjusted less than 0.1. Measurements were made in triplicate and are expressed as mean±SD.

[2] = Blood half-life from serum fluorescence after tail injection; format: in vivo; details: mouse, IV; single decay constant fit
Experimental: Using these procedures and PEG's of different molecular weights, PEG-like NIR fluorochromes of different molecular weights, volumes and pharmacokinetics were synthesized, with results summarized in Table 3B. Blood half-lives were determined by tail injection into mice and measuring serum fluorescence as a function of time. Data (fluorescence versus time) were fit to a single decay constant equation to yield blood half-lives. Human pharmacokinetics will be far slower than that of mice.

[3] = tested on: HT-29, a human colon carcinoma cell line; test: PN and peptide binding to cells (non-specific binding, FACS); format: cell-based; details: HT-29 cells, 30 min at 37° C., FACS
Experimental: HT-29, a human colon carcinoma cell line, was from the American Tissue Culture Collection and maintained according to their instructions. Cells were seeded on 24-well plates at 5×10^5 cells/well in culture medium (RPMI 1640 with 10% FBS) the day before the assay. The day of assay, medium was removed, wells rinsed twice with DPBS (+Ca, +Mg), and 100 μl of 2% FBS/DPBS (+Ca, +Mg) added. 100 μL of Nanoprobes (2 μM) in DPBS (+Ca, +Mg) was added to cells and incubated for 30 min at 37° C. (Probe concentrations were determined spectrophotometrically (783 nm, extinction coefficient of 314 471 cm^−1 M^−1 for IR-783; 497 nm, extinction coefficient of 68 000 cm^−1 M^−1 for Fluorescein; 545 nm, extinction coefficient of 150 000 cm^−1 M^−1 for Cy3). Cells were detached by Trypsin/EDTA and assayed for fluorescence by FACS (BD 7 laser LSR2 for nanoprobes with IR-783; BD 3 laser LSR2 for nanoprobes with Fluorescein or Cy3).

[4] = PN and peptide size (volume, diameter) by FPLC gel filtration (Superdex 200, globular protein standards); format: physicochemical; details: for Molecular Volume FPLC: Table 3B, dipeptides; for Volume FPLC (diameter) / Volume FPLC: Table 5; for Volume FPLC (diameter): converted from globular protein equivalent MW; for Volume FPLC: globular protein equivalent molecular weight
Experimental: DOTA-Lys-Cys(IR783)-NH2 is then dissolved in DMSO, with 2 equivalents of an NHS ester of PEG and 6 equivalents of DIPEA. The reaction was at room temperature for 5 days. Product was purified by reverse phase HPLC separation. Product molecular weight was by matrix-assisted laser desorption ionization time-of-flight mass spectrometry (MALDI-TOF MS), with product molecular volume by size exclusion FPLC using globular protein standards (GE Healthcare life science AKTApurifier 10).
The mass spec of low molecular weights (MW) were obtained by MS-ESI Micromass (Waters) and high MW molecules were determined through MALDI-TOF analyses at the Tufts University Core Facility. RP-HPLC (Varian ProStar detector and delivery modules) employed an eluant A (0.1% TFA/water) and eluant B (0.1% TFA and 9.9% water in acetonitrile). Probe size (volume) was determined by FPLC using an ÄKTA Purifier 10 and Superdex™ 200 10/300GL column (GE Healthcare) with a running buffer of 0.05 M sodium phosphate, 0.15 M NaCl (0.1% Tween, pH 7.2) and flow rate of 0.8 ml/min. Standards (GE Healthcare) were Ferritin, Ribonuclease A, Carbonic Anhydrase, and Conalbumin and Blue Dextran 2000. To obtain probe volumes, Mr (apparent molecular weight based on size exclusion retention) was plotted versus Kav. Kav=(Ve−Vo)/(Vt−Vo), Vt=total volume, Ve=elution volume, Vo=void volume.
The column was calibrated with globular protein standards, and globular protein equivalent molecular weights (in kDa) were obtained (Table 5, column 5). These were converted to PN diameters in nm using the relationship: Radius in nm=[…] where M is the molecular weight of a globular protein expressed in daltons (see Erickson, “Size and Shape of Protein Molecules at the Nanometer Level Determined by Sedimentation, Gel Filtration, and Electron Microscopy”, Biological Procedures Online 2009, 11(1): 32-50). PN's diameters ranged from 3.0 to 11.8 nm (see FIG. 23a). Using PEG's of 5 kDa and 30 kDa, selected for their low polydispersity, PN's were synthesized using IR-783, Cy3 and Fluorescein (see FIG. 22a) and their sizes determined (see FIGS. 23a, 23b, 23c). With the 5 kDa PEG and these three fluorochromes (see the magenta chromatograms in FIGS. 22a, 23b and 23c) PN diameters were 4.3 nm. With the 30 kDa PEG and these three fluorochromes (blue chromatograms, 23a, 23b, 23c), PN diameters were now 10.0 nm. For reference, the diameter of a 67 kDa albumin determined by this method was 5.4 nm.

[5] = tested on: mCherry/HT29 tumor sections; test: Confocal microscopy of tumor sections (tumor retention phase); format: in vivo, mouse; details: 48 hours post IV injection
Experimental: The mCherry-HT-29 tumor sample was collected at 48 hours post IV injection with PN(497)10.0, and then cryosectioned with thickness of 5 μm. The tumor section was fixed with 4% PFA, mounted with 90% glycerol/10% PBS (at pH 8.5 for best fluorescein fluorescence), and stained with DAPI. Confocal imaging was performed on a Zeiss LSM510 laser scanning confocal microscope (Zeiss Axiophot, Carl Zeiss, Jena, Germany). A 405 nm diode Laser, 488 nm argon laser, and 561 nm diode laser were used for the excitation of DAPI, fluorescein, and mCherry, respectively. A primary dichroic HFT 405/488/561 was used in combination with an LP420 emission filter for DAPI, BP505-530 for fluorescein, and LP575 for mCherry. Images were analyzed with ImageJ64.

[6] = literature/vendor reference value; cited from earlier work
[7] = Diffusion and elimination after intramuscular administration (surface fluorescence); format: in vivo; details: nude mouse, front extremity, 24 hours post injection
Experimental: The diffusion and elimination of the non-integrin binding RAD probe after an intramuscular administration in the front extremity of a nude mouse was visualized. Using surface fluorescence, the probe rapidly diffused through the extremity and shoulder of the mouse, with vascular uptake and renal elimination evident from bladder fluorescence at 4 hours post injection.

[8] = tested on: GFP expressing BT-20 breast carcinoma xenograft; test: Tumor surface fluorescence after peritumoral (DMR) or IV injection; format: in vivo, mouse; details: BT-20 tumors, 24 hours post injection
Experimental: Day 1, BT-20 cells were planted into 24-well plate at 750,000 cells/well in culture medium (EMEM with 10% FBS). Day 2, the old culture medium was replaced with new culture medium containing lenti-virus (1×10^8 particles/mL) and protamine sulphate (American Pharmaceutical Partners, Los Angelus, Calif.; 10 mg/mL; 1:500 of total volume of medium). Day 3, after 16 hours of transfection, medium was changed to the culture medium (EMEM with 10% FBS). 8 hours later, green cells could be seen via fluorescence microscope.
All animal experiments were approved by the Institutional Review Committee of Massachusetts General Hospital. Female nude mice (25-30 g; 6-8 weeks old; nu/nu; Cox 7, Massachusetts General Hospital, Boston, Mass.) were anesthetized with isoflurane/O2. Tumor cell implantation was performed both sides around the shoulder. 200 μl of cell suspension containing 10^6 cells in Matrigel (BD) was injected subcutaneously. Tumor cells were inoculated for 7 to 10 days.
The diffusion and molecular retention required of the DMR technique with a tumor bearing model were investigated. We peritumorally injected the RGD probe into an animal bearing two GFP expressing BT-20 breast carcinomas and monitored tumor GFP fluorescence and probe fluorescence as a function of time after injection. The non-integrin binding RAD probe was injected into a second animal also bearing two tumors. Overlaying purple probe fluorescence over green GFP yields white. […] Tumor surface fluorescence from both probes was quantified by the use of solution standards.
In FIG. 8a), two animals bearing two tumors were PT injected with the RGD probe or RAD probe as indicated and surface fluorescence images were obtained. […] In FIG. 8b), quantitation of tumor surface fluorescence after injections of the RGD or RAD probes as above. Surface fluorescence was quantified through the use of standard solutions.
To compare the DMR and intravenous (IV) methods, surface fluorescence images of tumor GFP and RGD probe fluorescence were obtained with skin removed, and overlays from the two signals obtained. With both DMR and IV administration, probe fluorescence extended beyond tumor GFP margins to a stromal area beyond the tumor. However, tumor fluorescence was far higher with DMR than IV injection, even though dose was far lower (50 pmoles/mouse by DMR versus 2000 pmoles/mouse by IV).
In FIG. 9a), skin covering GFP-BT-20 tumor was removed. Shown are visible GFP fluorescence, probe (CyAL5.5) fluorescence, and the overlay of GFP and probe fluorescence plus an X-ray image. Green GFP plus purple CyAL5.5 fluorescence yielded a white overlaid image. In FIG. 9b), with DMR or IV, probe fluorescence included a stromal zone of integrin binding surrounding the tumor was seen. […]

[9] = Probe volume determination by FPLC (Superdex 75, globular protein standards); format: physicochemical
Experimental: Size (volume) was determined by FPLC using an ÄKTA Purifier 10 and Superdex™ 75 10/300 GL column (GE Healthcare Lifesciences) with a running buffer of 0.05 M sodium phosphate, 0.15 M NaCl (0.1% Tween, pH 7.2) and flow rate of 0.5 ml/min. The protein standards (Gel Filtration Calibration Kit LMW, code no. 28-4038-41, GE Healthcare) (0.3 mg/ml, mixture of Aprotinin, Ribonuclease A, Ovalbumin, and Conalbumin) and Blue Dextran 2000 were used. To obtain volumes, Mr (apparent molecular weight based on size exclusion retention) was plotted versus Kav. Kav=(Ve−Vo)/[…], Vt=total volume, Ve=elution volume, Vo=void volume.

Row | Substance | Quantum Yield ([1]; Table 3B, IR-783 dipeptides) | Quant. Yield [1] | Serum half-life [2] [min] | Cell NSB (percent of cells with fluorescence higher than unstained cell) [3] [%] | Molecular Volume FPLC [4] [kDa] | Volume FPLC (diameter) [4] [nm] | Volume FPLC [4] [kDa] | further results
1 | (DOTA)Lys(PEG2K)-Cys(IR-783) [PN(783)3.0] | 0.15 | 0.13 | 1.4 | 50 | 11.2 | 3.0 | 11.2 | 
2 | (DOTA)Lys(PEG30K)-Cys(Cy3) [PN(545)10.0] |  | 0.61 |  | 15 |  |  | 435 | cellular localisation in tumor sections [5]: seen in mCherry/HT29 cells
3 | Cy3 |  |  |  |  |  |  |  | reference quantum yield [6]: 0.31
4 | DOTA-Lys(CyAL5.5)-Lys(5 kDa PEG)- βAla -Lys(sPEG-RAD) [Compound 7b] |  |  |  |  |  |  |  | clearance from intramuscular injection site [7]: detectable fluorescence was not found; tumor retention of probe fluorescence after peritumoral injection [8]: cleared by 24 hours post injection; Quantum Yield ([1]; Table 3A, CyAL5.5 tetrapeptides): 0.20; Quantum Yield ([1]; Table 4, DMR probes): 0.20; Equiv. Vol. ([9]; FPLC, globular protein equivalent volume): 25 kDa; Molecular Volume ([9]; Table 3A, tetrapeptides): 20 kDa; Molecular Volume ([9]; Table 4, DMR probes): 20-30 kDa
5 | (DOTA)Lys(PEG20K)-Cys(IR-783) [PN(783)8.4] | 0.17 | 0.16 | 17.6 | 14 | 262.5 | 8.4 | 262.5 | 

Source: patent US20150258217A1, “Methods of Synthesizing and Using Peg-Like Fluorochromes” (THE GENERAL HOSPITAL CORPORATION, priority 2012, published 2015)
